The source of these data is patent US7582460B2 (Wacker Chemie AG, priority 2003, dated 2009).

The Ki is the dissociation constant of the complex between target and ligand, obtained from inhibition or displacement. Lower therefore signals higher affinity.

Residue numbers refer to the chain shown, from its start. Names and notes keep the numbering of the source.

First the molecules themselves.
B1: serA: Escherichia coli wild-type 3-phosphoglycerate dehydrogenase (PGD, SEQ ID NO: 2) encoded by the serA gene (protein, listed as Escherichia coli)
chain: MAKVSLEKDKIKFLLVEGVHQKALESLRAAGYTNIEFHKGALDDEQLKESIRDAHFIGLRSRTHLTEDVINAAEKLVAIGCFCIGTNQVDLDAAAKRGIPVFNAPFSNTRSVAELVIGELLLLLRGVPEANAKAHRGVWNKLAAGSFEARGKKLGIIGYGHIGTQLGILAESLGMYVYFYDIENKLPLGNATQVQHLSDLLNMSDVVSLHVPENPSTKNMMGAKEISLMKPGSLLINASRGTVVDIPALCDALASKHLAGAAIDVFPTEPATNSDPFTSPLCEFDNVLLTPHIGGSTQEAQENIGLEVAGKLIKYSDNGSTLSAVNFPEVSLPLHGGRRLMHIHENRPGVLTALNKIFAEQGVNIAAQYLQTSAQMGYVVIDIEADEDVAEKALQAMKAIPGTIRARLLY
B2: serA416: E. coli PGD variant with replacement G349R (protein, UniProt P0A9T0 2-410, looked up, variant G349R)
D-3-phosphoglycerate …: AKVSLEKDKIKFLLVEGVHQKALESLRAAGYTNIEFHKGALDDEQLKESIRDAHFIGLRSRTHLTEDVINAAEKLVAIGCFCIGTNQVDLDAAAKRGIPVFNAPFSNTRSVAELVIGELLLLLRGVPEANAKAHRGVWNKLAAGSFEARGKKLGIIGYGHIGTQLGILAESLGMYVYFYDIENKLPLGNATQVQHLSDLLNMSDVVSLHVPENPSTKNMMGAKEISLMKPGSLLINASRGTVVDIPALCDALASKHLAGAAIDVFPTEPATNSDPFTSPLCEFDNVLLTPHIGGSTQEAQENIGLEVAGKLIKYSDNGSTLSAVNFPEVSLPLHGGRRLMHIHENRPRVLTALNKIFAEQGVNIAAQYLQTSAQMGYVVIDIEADEDVAEKALQAMKAIPGTIRARLLY
B3: serA20: E. coli PGD variant with replacement T372I (protein, UniProt P0A9T0 2-410, looked up, variant T372I)
D-3-phosphoglycerate …: B2 D-3-phosphoglycerate … with R348G, T371I
B4: serA419: E. coli PGD variant with replacement G349F (protein, UniProt P0A9T0 2-410, looked up, variant G349F)
D-3-phosphoglycerate …: B2 D-3-phosphoglycerate … with R348F
B5: serA445: E. coli PGD variant with replacement G349C (protein, UniProt P0A9T0 2-410, looked up, variant G349C)
D-3-phosphoglycerate …: B2 D-3-phosphoglycerate … with R348C
B6: serA420: E. coli PGD variant with replacement G349H (protein, UniProt P0A9T0 2-410, looked up, variant G349H)
D-3-phosphoglycerate …: B2 D-3-phosphoglycerate … with R348H
B7: serA214: E. coli PGD variant with replacement T372A (protein, UniProt P0A9T0 2-410, looked up, variant T372A)
D-3-phosphoglycerate …: B2 D-3-phosphoglycerate … with R348G, T371A
B8: serA418: E. coli PGD variant with replacement G349Y (protein, UniProt P0A9T0 2-410, looked up, variant G349Y)
D-3-phosphoglycerate …: B2 D-3-phosphoglycerate … with R348Y
B9: serA421: E. coli PGD variant with replacement G349N (protein, UniProt P0A9T0 2-410, looked up, variant G349N)
D-3-phosphoglycerate …: B2 D-3-phosphoglycerate … with R348N
B10: serA417: E. coli PGD variant with replacement G349W (protein, UniProt P0A9T0 2-410, looked up, variant G349W)
D-3-phosphoglycerate …: B2 D-3-phosphoglycerate … with R348W
B11: serA210: E. coli PGD variant with replacement T372W (protein, UniProt P0A9T0 2-410, looked up, variant T372W)
D-3-phosphoglycerate …: B2 D-3-phosphoglycerate … with R348G, T371W
B12: serA45: E. coli PGD variant with replacement G349I (protein, UniProt P0A9T0 2-410, looked up, variant G349I)
D-3-phosphoglycerate …: B2 D-3-phosphoglycerate … with R348I
B13: serA40: E. coli PGD variant, mutation at codon 349 printed G349 (G349D per Table 3) (protein, UniProt P0A9T0 2-410, looked up, variant G349D)
D-3-phosphoglycerate …: B2 D-3-phosphoglycerate … with R348D
B14: serA222: E. coli PGD variant with replacement T372V (protein, UniProt P0A9T0 2-410, looked up, variant T372V)
D-3-phosphoglycerate …: B2 D-3-phosphoglycerate … with R348G, T371V
B15: serA208: E. coli PGD variant with replacement T372H (protein, UniProt P0A9T0 2-410, looked up, variant T372H)
D-3-phosphoglycerate …: B2 D-3-phosphoglycerate … with R348G, T371H
B16: serA212: E. coli PGD variant with replacement T372F (protein, UniProt P0A9T0 2-410, looked up, variant T372F)
D-3-phosphoglycerate …: B2 D-3-phosphoglycerate … with R348G, T371F
B17: serA47: E. coli PGD variant with replacement G349E (protein, UniProt P0A9T0 2-410, looked up, variant G349E)
D-3-phosphoglycerate …: B2 D-3-phosphoglycerate … with R348E
B18: serA231: E. coli PGD variant with replacement T372C (protein, UniProt P0A9T0 2-410, looked up, variant T372C)
D-3-phosphoglycerate …: B2 D-3-phosphoglycerate … with R348G, T371C
B19: serA46: E. coli PGD variant with replacement G349M (protein, UniProt P0A9T0 2-410, looked up, variant G349M)
D-3-phosphoglycerate …: B2 D-3-phosphoglycerate … with R348M
B20: serA220: E. coli PGD variant with replacement T372S (protein, UniProt P0A9T0 2-410, looked up, variant T372S)
D-3-phosphoglycerate …: B2 D-3-phosphoglycerate … with R348G, T371S
B21: serA422: E. coli PGD variant with replacement G349Q (protein, UniProt P0A9T0 2-410, looked up, variant G349Q)
D-3-phosphoglycerate …: B2 D-3-phosphoglycerate … with R348Q
B22: serA228: E. coli PGD variant with replacement T372M (protein, UniProt P0A9T0 2-410, looked up, variant T372M)
D-3-phosphoglycerate …: B2 D-3-phosphoglycerate … with R348G, T371M
B23: serA221: E. coli PGD variant with replacement T372Q (protein, UniProt P0A9T0 2-410, looked up, variant T372Q)
D-3-phosphoglycerate …: B2 D-3-phosphoglycerate … with R348G, T371Q
B24: serA218: E. coli PGD variant with replacement T372N (protein, UniProt P0A9T0 2-410, looked up, variant T372N)
D-3-phosphoglycerate …: B2 D-3-phosphoglycerate … with R348G, T371N
B25: serA226: E. coli PGD variant with replacement T372L (protein, UniProt P0A9T0 2-410, looked up, variant T372L)
D-3-phosphoglycerate …: B2 D-3-phosphoglycerate … with R348G, T371L

The subject of one assay is 3-phosphoglycerate dehydrogenase (PGD). Put plainly: PGD enzyme activity in crude extracts (McKitrick and Pizer test). The format is biochemical, Escherichia coli. Conditions: crude extract of strain expressing plasmid-encoded serA allele; backward reaction, NADH oxidation at 340 nm. The text has this: (§1) For example, the PGD activity can be determined in analogy with the method described by McKitrick and Pizer (1980, J. Bacteriol. 141:235-245). The backward reaction is used to measure the enzyme activity in an assay sample which contains phosphohydroxypyruvate and NADH/H^+. The reaction is started by adding enzyme and is monitored in a spectrophotometer by way of the decrease in extinction at 340 nm which is caused by oxidation of the NADH/H^+.
(§2) At an optical density of 1.0, serA expression was in each case induced by adding 0.4 mM […] and the culture was incubated for a further 3 hours. The cells were subsequently harvested by centrifugation, washed and resuspended in 2 ml of buffer (100 mM K-phosphate, pH 7.0; 10 mM MgCl2; 1 mM dithiothreitol). The cells were disrupted using a French press (Spectronic Instruments, Inc. Rochester, N.Y., USA) at a pressure of 18 000 psi. The crude extracts were clarified by centrifugation at 30 000 g and PGD activity was determined using the McKitrick and Pizer test (1980, J. Bacteriol. 141:235-245).
Regarding B1, the Activity is given as 0.05 units/mg.
Same read-out and setting: for B2 the value was 0.04 units/mg.
The same measure, in the same setting: with B3 the figure was 0.05 units/mg; with B4, 0.05 units/mg; with B5, 0.04 units/mg.
For B6, the Activity turned out to be 0.05 units/mg.
On the same count and under the same terms, for B7 the value was 0.04 units/mg.
Same read-out and setting: for B8 the value was 0.05 units/mg.
Still for that read-out and setting: for B9 the value was 0.05 units/mg.
Molecule B10 returned an Activity of 0.02 units/mg.
Still for that read-out and setting: with B11 the figure was 0.04 units/mg; with B12, 0.05 units/mg; with B13, 0.05 units/mg.
Still for that read-out and setting: with B14 the figure was 0.05 units/mg; with B15, 0.05 units/mg.
Still for that read-out and setting: with B16 the figure was 0.05 units/mg; with B17, 0.05 units/mg.
B18 gave an Activity of 0.02 units/mg.
As to B19, the Activity is 0.05 units/mg.
The same measure, in the same setting: with B20 the figure was 0.05 units/mg; with B21, 0.05 units/mg.
Same read-out and setting: with B22 the figure was 0.03 units/mg; with B23, 0.05 units/mg; with B24, 0.05 units/mg.
Take B25: the Activity came to 0.04 units/mg.

A further assay concerns the target 3-phosphoglycerate dehydrogenase (PGD). Kind of assay: Inhibition of PGD activity by L-serine, inhibitor constant Ki. It is filed as biochemical, Escherichia coli. The conditions noted are these: Ki = inhibitor concentration at which activity is 50% of activity without inhibitor.
Source text: as §1, §2
For the molecule B1, the Ki is less than 0.1 mM.
The same measure, in the same setting: for B2 the value was 15 mM; for B3, 40 mM; for B4, 10 mM.
Same read-out and setting: with B5 the figure was 5 mM; with B6, 10 mM; with B7, 10 mM.
The same measure, in the same setting: with B8 the figure was 6 mM; with B9, 15 mM; with B10, 8 mM.
B11 registered an inhibition constant Ki of 60 mM.
Same read-out and setting: for B12 the value was 5 mM.
The same measure, in the same setting: for B13 the value was 25 mM; for B14, 40 mM.
On the same count and under the same terms, with B15 the figure was 80 mM.
Consider B16, for which the Ki amounted to 60 mM. This Ki and that of the molecule before are within 1.5-fold of each other.
The same measure, in the same setting: for B17 the value was 20 mM; for B18, 3 mM; for B19, 1 mM.
B20 yielded a Ki of 1 mM.
B21 gave a Ki of 15 mM.
On the same count and under the same terms, for B22 the value was 60 mM.
The same measure, in the same setting: for B23 the value was 100 mM; for B24, 100 mM; for B25, 40 mM.
